Assay [1] deals with Im7-D2 (C-terminal domain of D2 fused to Im7) (Thermosynechococcus elongatus, UniProt Q8CM25 289-352). Briefly: SPR.
Assay [2] has as its target Im7-D1a (D1 a-loop fused to Im7) (Thermosynechococcus elongatus, UniProt P0A444 54-113). As to the kind of experiment: SPR.

Im7-D1a (D1 a-loop fused to Im7), sequence (P0A444 54-113): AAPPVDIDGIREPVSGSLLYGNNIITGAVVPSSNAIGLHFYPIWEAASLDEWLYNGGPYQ
Im7-D2 (C-terminal domain of D2 fused to Im7), sequence (Q8CM25 289-352): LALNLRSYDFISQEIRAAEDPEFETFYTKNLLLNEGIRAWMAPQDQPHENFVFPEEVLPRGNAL

B1: PsbO (natural protein)
chain: AKQTLTYDDIVGTGLANKCPTLDDTARGAYPIDSSQTYRIARLCLQPTTFLVKEEPKNKRQEAEFVPTKLVTRETTSLDQIQGELKVNSDGSLTFVEEDGIDFQPVTVQMAGGERIPLLFTVKNLVASTQPNVTSITTSTDFKGEFNVPSYRTANFLDPKGRGLASGYDSAIALPQAKEEELARANVKRFSLTKGQISLNVAKVDGRTGEIAGTFESEQLSDDDMGAHEPHEVKIQGVFYASIEPA
With B1, the dissociation constant (Kd) in assay [1] is ~41 µM; in assay [2], ~60 µM.

The record behind these values is PMC4220643 (2014).
